These are literature values, as cited in patent US20200179530A1, “TARGETED DELIVERY OF THERAPEUTIC AGENTS AND IMAGING REAGENTS TO PANCREATIC CANCER CELLS” (UNIVERSITY OF MIAMI, priority 2016, published 2020).

Consider “AvidinOX: avidin variant containing aldehyde groups, generated by ligand-assisted sugar oxidation of avidin by sodium periodate”, for which the half-life in tissue result is listed as “weeks”.
“native avidin: native avidin, comparator for AvidinOX half-life”: the half-life entry (tissue) is recorded as “about two”.
